# In patent US20240067734A1 (Hoffmann-La Roche, published 2024):
# Like-named read-outs stand apart in the source and are kept apart here.
# T1: human NKG2D expressed on cells (human, UniProt P26718 1-216)
# T1 construct: the cell type is named under assay; also called NKG2D on NK92 cells; HEK293T human NKG2D
# T1 chain: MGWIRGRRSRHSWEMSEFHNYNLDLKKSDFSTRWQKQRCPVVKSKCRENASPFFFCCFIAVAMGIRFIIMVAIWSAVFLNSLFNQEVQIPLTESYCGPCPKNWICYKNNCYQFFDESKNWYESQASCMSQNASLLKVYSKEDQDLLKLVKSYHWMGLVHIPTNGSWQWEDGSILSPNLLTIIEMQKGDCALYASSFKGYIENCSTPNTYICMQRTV
# T2: CEA expressed on LS180 tumor cells (human, UniProt P06731 35-685)
# T2 construct: whole, on cells; also called carcinoembryonic antigen; CEACAM5
# T2 sequence (looked up): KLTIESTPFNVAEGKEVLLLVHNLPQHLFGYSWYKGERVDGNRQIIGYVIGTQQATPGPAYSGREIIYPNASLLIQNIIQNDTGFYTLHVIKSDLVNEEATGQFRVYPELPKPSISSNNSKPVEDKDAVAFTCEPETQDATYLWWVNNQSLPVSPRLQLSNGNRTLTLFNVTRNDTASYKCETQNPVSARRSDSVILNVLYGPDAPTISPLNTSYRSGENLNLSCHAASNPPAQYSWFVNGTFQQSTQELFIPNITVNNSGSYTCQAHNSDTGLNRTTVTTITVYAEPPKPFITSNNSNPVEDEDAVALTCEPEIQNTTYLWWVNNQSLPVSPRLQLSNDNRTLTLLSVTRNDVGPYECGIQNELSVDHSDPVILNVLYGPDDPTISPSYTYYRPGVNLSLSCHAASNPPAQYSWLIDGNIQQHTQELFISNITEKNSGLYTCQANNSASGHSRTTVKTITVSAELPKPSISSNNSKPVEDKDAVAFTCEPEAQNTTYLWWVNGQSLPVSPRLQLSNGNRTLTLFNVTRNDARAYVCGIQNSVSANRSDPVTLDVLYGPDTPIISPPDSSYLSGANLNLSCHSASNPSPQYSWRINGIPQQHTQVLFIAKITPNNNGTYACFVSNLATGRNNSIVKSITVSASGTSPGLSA
# Tests used:
# [1] = target: T1, human NKG2D expressed on cells; experiment: flow cytometry on NK92 cells, PE anti-human Fc secondary antibody
# Description: The anti-NKG2D antibodies P1AE4980, C26 and ADI27743 from Example 21 were tested for binding to NKG2D on NK92 cells.
# Viability of NK92 cells was checked and cells were re-suspended and adjusted to a density of 1.5 mio cells/ml. 100 μl of this cell suspension (containing 0.15 mio cells) were seeded into a 96 well round bottom plate. The plate was centrifuged for 4 min at 400×g and the supernatant was removed. Then 40 μl of the diluted antibodies or FACS buffer were added to the cells and incubated for 30 min at 4° C. After the incubation the cells were washed twice with 150 μl FACS buffer per well. […] The cells were incubated for an additional 30 min at 4° C. To remove unbound antibody the cells were washed again twice with 150 μl per well FACS buffer. For the measurement, the cells were re-suspended in 150 μl FACS buffer. The fluorescence was measured using a BD flow cytometer.
# [2] = target: T3, mono huNKG2D ECD Fc kh avi (human, UniProt P0DOX5 223-449 = IgG part, biotinylated at the avi-tag); experiment: SPR ProteOn; antigen on NLC chip, Fab analyte
# T3 construct: Monovalent human NKG2D ECD fused to the C-terminus of an avi-tagged human IgG1 Fc knob chain, paired with an empty Fc hole chain
# Description: (§1) This incubation step was repeated once with 25 ml of a 5 mM MgSO₄ solution. The supernatants of both incubation steps were pooled, filtered and loaded on an IMAC column (His[…]™, GE Healthcare). Subsequently, the column was washed with 40 ml washing buffer (500 mM NaCl, 20 mM imidazole, 20 mM NaH2PO₄ pH 7.4). After the elution (500 mM NaCl, 500 mM imidazole, 20 mM NaH₂PO₄ pH 7.4) the eluate was re-buffered using PD10 columns (GE Healthcare).
# (§2) Immobilization of recombinant antigens (ligand): Antigens were diluted with PBST (10 mM phosphate, 150 mM sodium chloride pH 7.4, 0.005% TWEEN® (polysorbate) 20) to 10 μg/ml, then injected at 30 μl/minute at varying contact times in vertical orientation for immobilization. […] Buffer (PBST) was injected along the sixth channel to provide an “in-line” blank for referencing. Association rate constants (kₒₙ) and dissociation rate constants (koff) were calculated using a simple one-to-one Langmuir binding model in PROTEON™ Manager v3.1 software by simultaneously fitting the association and dissociation sensorgrams. The equilibrium dissociation constant (KD) was calculated as the ratio koff/kₒₙ. Cross-reactivity of clones 5C5 and 13C6 to cynomolgus NKG2D, i.e. binding to di cyNKG2D ECD Fc avi, was assessed on IgG level (see Example 9).
# [3] = target: T4, di huNKG2D ECD Fc avi (human, biotinylated at the avi-tag); experiment: SPR ProteOn; antigen on NLC chip, Fab analyte
# T4 construct: Dimeric fusion of human NKG2D ECD to the C-terminus of an avi-tagged human IgG1 Fc
# Description: as §1, §2
# [4] = target: T1, human NKG2D expressed on cells; experiment: flow cytometry on NKG2D-positive NK92 cells, anti-human Fc secondary antibody
# [5] = target: T1, human NKG2D expressed on cells; experiment: as above
# Description: (§3) Viability of NK92 cells or tumor cells (MKN-45, LS180) was checked and cells were re-suspended and adjusted to a density of 1 mio cells/ml. 100 μl per well of this cell suspension (containing 0.1 mio cells) were seeded into a 96 well round bottom plate. The plate was centrifuged for 4 min at 400×g and the supernatant was removed. Then 40 μl of the diluted antibodies or FACS buffer were added to the cells and incubated for 30 min at 4° C. After the incubation the cells were washed twice with 150 μl FACS buffer per well. […] The cells were incubated for an additional 30 min at 4° C. To remove unbound antibody, the cells were washed again twice with 150 μl per well FACS buffer. To fix the cells, 100 μl of FACS buffer containing 1% PFA were added to the wells. Before measuring, the cells were re-suspended in 150 μl FACS buffer. The fluorescence was measured using a BD flow cytometer.
# [6] = target: T2, CEA expressed on LS180 tumor cells; experiment: flow cytometry on CEA-positive LS180 cells, anti-human Fc secondary antibody
# Description: as §3
binder,measurement,setting,value
"anti-NKG2D antibody P1AE4980 (IgG) (antibody, V domains shown, Tested as IgG beside C26 and ADI27743 (human IgG1 PGLALA)) VH: QEQLVQSGAEVKKPGESLKISCKGSGFDFNTFWMTWVRQMPGKGLEWMGSIHGGSGSRDYSPSFQGQVTISADIDQSTAYLQWSSLKASDTAMYYCARPGYRSWSKTFDLWGQGTTVTVSS VL: DIQMTQSPSSLSASVGDRVTITCRASQDISGALNWYQQKPGKAPNLLIYAASSLQSGVPSRFSGSGSGTDYTLTISSLQPEDFATYYCQQANSFPLTFGGGTKVEIK",binding result,[1],binds
"anti-NKG2D clone 13C6 Fab (Fab, V domains shown, Phage-display Fab purified from E. coli by IMAC (Flag-tagged)) VH: EVQLVQSGAEVKKPGESLKISCKGSGYSFTSYWIGWVRQMPGKGLEWMGIIYPGDSDTRYSPSFQGQVTISADKSISTAYLQWSSLKASDTAMYYCARLYPVGVYFDYWGQGTLVTVSS VL: not shown",Kd,[2],79 nM
same,koff,[2],0.00096 s⁻¹
same,kon,[2],12000 M⁻¹ s⁻¹
same,Kd,[3],74 nM
same,koff,[3],0.0007 s⁻¹
same,kon,[3],9500 M⁻¹ s⁻¹
"anti-NKG2D clone 5C5 Fab (Fab, V domains shown, Phage-display Fab purified from E. coli by IMAC (Flag-tagged)) VH: not shown VL: SSELTQDPAVSVALGQTVRITCQGDSLRSYYASWYQQKPGQAPVLVIYGKNNRPSGIPDRFSGSSSGNTASLTITGAQAEDEADYYCNSRDSFSIHQNVFGGGTKLTVL",Kd,[2],15 nM
same,koff,[2],0.0055 s⁻¹
same,kon,[2],360000 M⁻¹ s⁻¹
same,Kd,[3],22 nM
same,koff,[3],0.0056 s⁻¹
same,kon,[3],250000 M⁻¹ s⁻¹
"NKG2D×CEA bispecific antibody, anti-NKG2D 320 / anti-CEA B9, J format (bispecific antibody, V domains shown, also called format J (320); tetravalent construct J) VH 1: EVQLLESGGGLVQPGGSLRLSCATSGFTFSDYAMSWVRQAPGKGLEWVSYNSFSVGSTDYADSVKGRFTISRDNSKNTLYLQMNSLRAEDTAVYYCSKHSGNYYTGPFHYWGQGTLVTVSS VL 1: DIQLTQSPSFLSASVGDRVTITCRASQGISSYLAWYQQKPGKAPKLLIYAASSLESGVPSRFSGSGSGTDFTLTISSLQPEDFATYYCQQSYSTPITFGQGTRLEIK VH 2: VQLVESGGGLVQPGRSLRLSCAASGFTVSSYWMHWVRQAPGKGLEWVGFIRNKANGGTTEYAASVKGRFTISRDDSKNTLYLQMNSLRAEDTAVYYCARDRGLRFYFDYWGQGTTVTVSS VL 2: QAVLTQPASLSASPGASASLTCTLRRGINVGAYSIYWYQQKPGSPPQYLLRYKSDSDKQQGSGVSSRFSASKDASANAGILLISGLQSEDEADYYCMIWHSGASAVFGGGTKLTVL",EC50 (read off the curve),[4],~6 nM
"NKG2D×CEA bispecific antibody, anti-NKG2D 395 (C50S) / anti-CEA B9, I format (bispecific antibody, V domains shown, also called bivalent I format) VH 1: QEQLEQSGGGLVTPGGSLKLCCTASGFDFNTFWMTWVRQAPGKGLEWIGSIHGGSGSRDYASWVNGRFTLSRDIDQSTACLQVNSLTAADTAMYYCARPGYRSWSKTFDLWGQGTMVTVSS VL 1: DIQMTQSPSSLSASVGDRVTITCRASQDISGALNWYQQKPGKAPNLLIYAASSLQSGVPSRFSGSGSGTDYTLTISSLQPEDFATYYCQQANSFPLTFGGGTKVEIK VH 2: VQLVESGGGLVQPGRSLRLSCAASGFTVSSYWMHWVRQAPGKGLEWVGFIRNKANGGTTEYAASVKGRFTISRDDSKNTLYLQMNSLRAEDTAVYYCARDRGLRFYFDYWGQGTTVTVSS VL 2: QAVLTQPASLSASPGASASLTCTLRRGINVGAYSIYWYQQKPGSPPQYLLRYKSDSDKQQGSGVSSRFSASKDASANAGILLISGLQSEDEADYYCMIWHSGASAVFGGGTKLTVL",EC50 (read off the curve),[5],~2 nM
"NKG2D×CEA bispecific antibody, anti-NKG2D 320 / anti-CEA B9, I format (bispecific antibody, V domains shown, also called format I (320); I format with antibody 320) VH 1: EVQLLESGGGLVQPGGSLRLSCATSGFTFSDYAMSWVRQAPGKGLEWVSYNSFSVGSTDYADSVKGRFTISRDNSKNTLYLQMNSLRAEDTAVYYCSKHSGNYYTGPFHYWGQGTLVTVSS VL 1: DIQLTQSPSFLSASVGDRVTITCRASQGISSYLAWYQQKPGKAPKLLIYAASSLESGVPSRFSGSGSGTDFTLTISSLQPEDFATYYCQQSYSTPITFGQGTRLEIK VH 2: VQLVESGGGLVQPGRSLRLSCAASGFTVSSYWMHWVRQAPGKGLEWVGFIRNKANGGTTEYAASVKGRFTISRDDSKNTLYLQMNSLRAEDTAVYYCARDRGLRFYFDYWGQGTTVTVSS VL 2: QAVLTQPASLSASPGASASLTCTLRRGINVGAYSIYWYQQKPGSPPQYLLRYKSDSDKQQGSGVSSRFSASKDASANAGILLISGLQSEDEADYYCMIWHSGASAVFGGGTKLTVL",EC50 (read off the curve),[4],~10 nM
"NKG2D×CEA bispecific antibody, anti-NKG2D 320 / anti-CEA B9, L format (bispecific antibody, V domains shown, also called format L (320)) VH 1: EVQLLESGGGLVQPGGSLRLSCATSGFTFSDYAMSWVRQAPGKGLEWVSYNSFSVGSTDYADSVKGRFTISRDNSKNTLYLQMNSLRAEDTAVYYCSKHSGNYYTGPFHYWGQGTLVTVSS VL 1: DIQLTQSPSFLSASVGDRVTITCRASQGISSYLAWYQQKPGKAPKLLIYAASSLESGVPSRFSGSGSGTDFTLTISSLQPEDFATYYCQQSYSTPITFGQGTRLEIK VH 2: VQLVESGGGLVQPGRSLRLSCAASGFTVSSYWMHWVRQAPGKGLEWVGFIRNKANGGTTEYAASVKGRFTISRDDSKNTLYLQMNSLRAEDTAVYYCARDRGLRFYFDYWGQGTTVTVSS VL 2: QAVLTQPASLSASPGASASLTCTLRRGINVGAYSIYWYQQKPGSPPQYLLRYKSDSDKQQGSGVSSRFSASKDASANAGILLISGLQSEDEADYYCMIWHSGASAVFGGGTKLTVL",EC50 (read off the curve),[6],~10 nM
"anti-NKG2D antibody C26 IgG (PG LALA) (antibody, V domains shown, Human IgG1 with PGLALA; variable domains from WO 2018/148445) VH: QVQLQQWGAGLLKPSETLSLTCAVYGGSFSGYYWSWIRQPPGKGLEWIGEIDHSGSTNYNPSLKSRVTISVDTSKNQFSLKLSSVTAADTAVYYCARARGPWSFDPWGQGTLVTVSS VL: DIQMTQSPSTLSASVGDRVTITCRASQSISSWLAWYQQKPGKAPKLLIYKASSLESGVPSRFSGSGSGTEFTLTISSLQPDDFATYYCQQYGSFPITFGGGTKVEIKR",binding result,[1],binds
"anti-NKG2D antibody ADI27743 IgG (PG LALA) (antibody, V domains shown, Human IgG1 with PGLALA; variable domains from WO 2018/148445) VH: QVQLQQWGAGLLKPSETLSLTCAVYGGSFSGYYWSWIRQPPGKGLEWIGEIDHSGSTNYNPSLKSRVTISVDTSKNQFSLKLSSVTAADTAVYYCARARGPWSFDPWGQGTLVTVSS VL: not shown",binding result,[1],binds
